Measurements as given in FireProtDB (doi:10.1021/bi9912950).
Values joined by “and” are separate entries in the source; they are usually repeats but may differ in a detail not shown here. Equal values may be shown once.

Conditions: Bos taurus, 25 °C, CD, Ammonium acetate 0.1 M, reversible: yes, whole UniProt chain shown

B1: Oxytocin-neurophysin 1 wild type, P01175 (protein)
chain: MAGSSLACCLLGLLALTSACYIQNCPLGGKRAVLDLDVRTCLPCGPGGKGRCFGPSICCGDELGCFVGTAEALRCQEENYLPSPCQSGQKPCGSGGRCAAAGICCSPDGCHEDPACDPEAAFSQH
denaturant m value (pH 6, GdnHCl): 1.6 kcal/mol/M and 1.1 kcal/mol/M | unfolding free energy (pH 6, GdnHCl): 6.8 kcal/mol and 3.1 kcal/mol | denaturant m value (pH 8, GdnHCl): 1.5 kcal/mol/M and 1.1 kcal/mol/M | unfolding free energy (pH 8, GdnHCl): 4.9 kcal/mol and 3 kcal/mol | denaturant m value (pH 8, Urea): 0.7 kcal/mol/M and 0.4 kcal/mol/M | unfolding free energy (pH 8, Urea): 4.4 kcal/mol and 2.4 kcal/mol | denaturant m value (pH 10, GdnHCl): 0.9 kcal/mol/M and 1 kcal/mol/M | unfolding free energy (pH 10, GdnHCl): 2.7 kcal/mol and 2.6 kcal/mol
